Source: PMC9500918, “Extended N-Terminal Acetyltransferase Naa50 in Filamentous Fungi Adds to Naa50 Diversity” (International Journal of Molecular Sciences, 2022)

What was measured:
Assay in all cases: colorimetric DTNB acetylation assay, Michaelis-Menten
Conditions in all cases: 1.5 mM MVNALE peptide, 30 °C, reaction buffer pH 7.5
[1] = substrate: CC(=O)SCCNC(=O)CCNC(=O)[C@H](O)C(C)(C)COP(=O)(O)OP(=O)(O)OC[C@H]1O[C@@H](n2cnc3c(N)ncnc32)[C@H](O)[C@@H]1OP(=O)(O)O; assay type: biochemical, Thermochaetoides thermophila
Description: colorimetric DTNB acetylation assay, Michaelis-Menten on CtNaa50_82-445 (ΔN)

[2] = substrate: CC(=O)SCCNC(=O)CCNC(=O)[C@H](O)C(C)(C)COP(=O)(O)OP(=O)(O)OC[C@H]1O[C@@H](n2cnc3c(N)ncnc32)[C@H](O)[C@@H]1OP(=O)(O)O; assay type: biochemical, Neurospora crassa
Description: colorimetric DTNB acetylation assay, Michaelis-Menten on NcNaa50_93-287 (GNAT)

[3] = substrate: CC(=O)SCCNC(=O)CCNC(=O)[C@H](O)C(C)(C)COP(=O)(O)OP(=O)(O)OC[C@H]1O[C@@H](n2cnc3c(N)ncnc32)[C@H](O)[C@@H]1OP(=O)(O)O; assay type: biochemical, Thermochaetoides thermophila; remark: listed apart in the source
[4] = substrate: CC(=O)SCCNC(=O)CCNC(=O)[C@H](O)C(C)(C)COP(=O)(O)OP(=O)(O)OC[C@H]1O[C@@H](n2cnc3c(N)ncnc32)[C@H](O)[C@@H]1OP(=O)(O)O; assay type: biochemical, Thermochaetoides thermophila; remark: listed apart in the source
Description: colorimetric DTNB acetylation assay, Michaelis-Menten on CtNaa50_1-289 (ΔC)

[5] = substrate: CC(=O)SCCNC(=O)CCNC(=O)[C@H](O)C(C)(C)COP(=O)(O)OP(=O)(O)OC[C@H]1O[C@@H](n2cnc3c(N)ncnc32)[C@H](O)[C@@H]1OP(=O)(O)O; assay type: biochemical, Thermochaetoides thermophila; remark: listed apart in the source
Description: colorimetric DTNB acetylation assay, Michaelis-Menten on CtNaa50_82-289 (GNAT)

B1: CtNaa50_82-445 (ΔN) (Thermochaetoides thermophila DSM 1495) (protein)
chain: LPSGASIVPLAQEHIPALRRINSLLLPVAYPDSFYHKALDPLASGLFSRAILWQDTNADPPKVVGGLICRLEPNPFLSVTGEPTPVQLPADQPQRAPQAPKDTPFHAIYIQSLALLSPYRSLGLAAAALDHIIATAAVLPAAGSNIDARTIYAHVWTENEEGLKWYESRGFVKEGGEPVKGYYFKLRPDTAWIVRRHIGESAKLNDVVSQPQPQPQQQLQQQPAVDIAPTATSVLAAAVNLPPITSTPPPPSTGSKLPTSNTSTLASRPPPPLRSTSSSTSSATSLSYQNTRPPTEWNDIPPDMVAGPPIAARGRRVTAAAASDPAANGCSGTGSGASSRSASAAAGTGKKRKGRDYPTAAFGN
notes: N-terminal deletion, residues 82-445, E. coli
Km [1]: 41.2 ± 6.1 µM | kcat [1]: 0.398 ± 0.0167 s⁻¹ | kcat/Km [1]: 9670 ± 1500 M⁻¹ s⁻¹

B2: NcNaa50_93-287 (GNAT) (Neurospora crassa OR74A) (protein)
chain: SQANIVAVAEHHIAALRRINSLLLQVAYPDAFYAKVLEPLASGLFSRVILWSDDPTSEPKVIGGVVCRLEPNPFLDPNGQPQAPRIQQNQPGPSAPIDYPYHAIYIQSLALLSPYRSLGLAAAALEHIIASASILPAAGSTINVRTIYAHVWTENEEGLQWYGQRGFRTEGRDPVRGYYFKLRPDTAWIVRRDIG
notes: GNAT domain, residues 93-287, C-terminal His6, E. coli; full-length 494 residues
Km [2]: 146.9 ± 12.1 µM | kcat [2]: 1.6 ± 0.05 s⁻¹ | kcat/Km [2]: 10800 ± 1000 M⁻¹ s⁻¹

B3: CtNaa50_1-289/CtDLC1 complex (Thermochaetoides thermophila DSM 1495) (protein)
chain: MSASRQASIKSFFQPRGLPTHNTTFSSKTPPTDRATQTTTPPPVPPPAPAPPSHQPAAPEPITISVRLPPGGVPNLPSPPSLPSGASIVPLAQEHIPALRRINSLLLPVAYPDSFYHKALDPLASGLFSRAILWQDTNADPPKVVGGLICRLEPNPFLSVTGEPTPVQLPADQPQRAPQAPKDTPFHAIYIQSLALLSPYRSLGLAAAALDHIIATAAVLPAAGSNIDARTIYAHVWTENEEGLKWYESRGFVKEGGEPVKGYYFKLRPDTAWIVRRHIGESAKLNDVV
notes: CtNaa50 1-289 (S. cerevisiae, His-tag cut by TEV) co-purified with untagged CtDLC1 (E. coli); with putative dynein light chain 1 protein
Km [3]: 30.4 ± 6.3 µM | kcat [3]: 0.357 ± 0.02 s⁻¹

B4: CtNaa50_1-289 (ΔC) (Thermochaetoides thermophila DSM 1495) (protein)
chain: MSASRQASIKSFFQPRGLPTHNTTFSSKTPPTDRATQTTTPPPVPPPAPAPPSHQPAAPEPITISVRLPPGGVPNLPSPPSLPSGASIVPLAQEHIPALRRINSLLLPVAYPDSFYHKALDPLASGLFSRAILWQDTNADPPKVVGGLICRLEPNPFLSVTGEPTPVQLPADQPQRAPQAPKDTPFHAIYIQSLALLSPYRSLGLAAAALDHIIATAAVLPAAGSNIDARTIYAHVWTENEEGLKWYESRGFVKEGGEPVKGYYFKLRPDTAWIVRRHIGESAKLNDVV
notes: C-terminal deletion, residues 1-289, N-terminal His-tag removed by TEV, S. cerevisiae
Km [4]: 31.9 ± 4.4 µM | kcat [4]: 0.272 ± 0.01 s⁻¹ | kcat/Km [4]: 8500 ± 1170 M⁻¹ s⁻¹

B5: CtNaa50_82-289 (GNAT) (Thermochaetoides thermophila DSM 1495) (protein)
chain: LPSGASIVPLAQEHIPALRRINSLLLPVAYPDSFYHKALDPLASGLFSRAILWQDTNADPPKVVGGLICRLEPNPFLSVTGEPTPVQLPADQPQRAPQAPKDTPFHAIYIQSLALLSPYRSLGLAAAALDHIIATAAVLPAAGSNIDARTIYAHVWTENEEGLKWYESRGFVKEGGEPVKGYYFKLRPDTAWIVRRHIGESAKLNDVV
notes: GNAT domain, residues 82-289, C-terminal His6 kept, E. coli; full-length 445 residues; one molecule per asymmetric unit
Km [5]: 52.7 ± 8.6 µM | kcat [5]: 0.607 ± 0.03 s⁻¹ | kcat/Km [5]: 11500 ± 2000 M⁻¹ s⁻¹

B6: CtNaa50_82-289 (GNAT) (Thermochaetoides thermophila DSM 1495; H235A) (protein)
chain: LPSGASIVPLAQEHIPALRRINSLLLPVAYPDSFYHKALDPLASGLFSRAILWQDTNADPPKVVGGLICRLEPNPFLSVTGEPTPVQLPADQPQRAPQAPKDTPFHAIYIQSLALLSPYRSLGLAAAALDHIIATAAVLPAAGSNIDARTIYAAVWTENEEGLKWYESRGFVKEGGEPVKGYYFKLRPDTAWIVRRHIGESAKLNDVV
notes: as for B5
Km [5]: 15.3 ± 3.1 µM | kcat [5]: 0.0233 ± 0.00167 s⁻¹ | kcat/Km [5]: 1500 ± 333 M⁻¹ s⁻¹

B7: CtNaa50_82-289 (GNAT) (Thermochaetoides thermophila DSM 1495; Y190F) (protein)
chain: LPSGASIVPLAQEHIPALRRINSLLLPVAYPDSFYHKALDPLASGLFSRAILWQDTNADPPKVVGGLICRLEPNPFLSVTGEPTPVQLPADQPQRAPQAPKDTPFHAIFIQSLALLSPYRSLGLAAAALDHIIATAAVLPAAGSNIDARTIYAHVWTENEEGLKWYESRGFVKEGGEPVKGYYFKLRPDTAWIVRRHIGESAKLNDVV
notes: as for B5
Km [5]: 22.0 ± 4.0 µM | kcat [5]: 0.0933 ± 0.005 s⁻¹ | kcat/Km [5]: 4330 ± 833 M⁻¹ s⁻¹
